We go through 6 molecules from publication PMC5587766, “Towards designer organelles by subverting the peroxisomal import pathway” (Nature Communications, 2017).

One assay addresses lissamine-YQSYY. In words: fluorescence polarisation; fluorescence anisotropy; AtPEX5C or variant serially diluted (from a 40 µM solution) against 100 nM lissamine-labelled peptide tracer; 20 mM HEPES, 150 mM NaCl, pH 7.5; gelatine-blocked 384-well plates; 25 °C, 20 min; fitted to a 1:1 binding model.
For assay [1], the target named is endogenous PhypaPEX5 (Physcomitrella patens (endogenous in P. patens cells)).
Assay [2] has as its target T1, AtPEX5C N601A (Arabidopsis thaliana, UniProt Q9FMA3, N601A).
T1 construct: made in house; host or cells: E. coli BL21-Gold (DE3)
T1 sequence (Q9FMA3 340-728 N601A): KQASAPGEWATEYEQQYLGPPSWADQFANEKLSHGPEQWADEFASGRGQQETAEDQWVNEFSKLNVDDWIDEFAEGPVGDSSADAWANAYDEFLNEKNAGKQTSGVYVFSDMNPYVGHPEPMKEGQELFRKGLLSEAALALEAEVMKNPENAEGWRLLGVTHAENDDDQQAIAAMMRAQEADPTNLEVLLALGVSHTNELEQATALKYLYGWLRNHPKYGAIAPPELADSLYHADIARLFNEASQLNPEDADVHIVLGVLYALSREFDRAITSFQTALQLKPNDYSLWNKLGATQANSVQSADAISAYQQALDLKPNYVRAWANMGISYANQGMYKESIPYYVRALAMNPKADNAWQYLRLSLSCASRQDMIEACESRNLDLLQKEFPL
The assay can be described thus: Pull down of binding peptides (Co-NTA, LC-MS), AtPEX5C N601A. The settings on record: […] protein, 500 nM each peptide, pH 8.0, 4 °C, 1 h, semi-quantitative. The source says: (§1) The chemical space that can be covered by all possible variants of the receptor and signal sequence is vast (e.g., combined randomization of the two C-terminal PTS1 residues and just six residues within AtPEX5C would result in a library size of 2.6 × 10^10 variants of peptide and protein), which makes the development of an assay for a PEX5*-PTS1* pair problematic. We reduced the dimensionality of this search by designing modifications to the PEX5 component and rapidly surveying which peptide sequences could be bound by each mutated receptor (Fig. 1a). Site-directed variants of a His6-tagged A. thaliana PEX5 PTS1-binding domain (residues 340–728, AtPEX5C)[16], selected by analysis of known crystal structures, were expressed in Escherichia coli. The purified proteins were incubated with a library of pentapeptides, representing known PTS1 and putative PTS1* sequences. After capture of the receptor-peptide complexes on cobalt affinity resin, the bound peptides were eluted and identified by liquid chromatography-mass spectrometry (LC-MS) analysis. […]
(§2) Each peptide sub-library was analyzed using the LC-MS method listed above and an identical chromatographic run in which the mass spectrometer provided automated MS/MS data, using collisional induced fragmentation in the quadrupole. […]

Assay [3] deals with T2, AtPEX5C D505H (Arabidopsis thaliana, UniProt Q9FMA3, D505H).
T2 construct: made in house; host or cells: E. coli BL21-Gold (DE3)
T2 sequence (Q9FMA3 340-728 D505H): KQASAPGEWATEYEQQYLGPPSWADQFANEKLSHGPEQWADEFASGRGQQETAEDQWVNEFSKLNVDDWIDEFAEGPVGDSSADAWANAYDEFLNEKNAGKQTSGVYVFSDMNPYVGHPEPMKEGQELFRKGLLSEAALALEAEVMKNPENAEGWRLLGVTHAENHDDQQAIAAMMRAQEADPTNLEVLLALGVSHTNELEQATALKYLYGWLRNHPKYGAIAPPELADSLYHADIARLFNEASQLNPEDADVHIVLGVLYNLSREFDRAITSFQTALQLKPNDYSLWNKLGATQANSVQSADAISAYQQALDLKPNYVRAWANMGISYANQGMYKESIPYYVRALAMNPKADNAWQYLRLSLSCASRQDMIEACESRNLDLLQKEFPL
The assay can be described thus: Pull down of binding peptides (Co-NTA, LC-MS), AtPEX5C D505H. The settings on record: […] protein, 500 nM each peptide, pH 8.0, 4 °C, 1 h, semi-quantitative.
Text: as §1, §2

The next assay concerns the target T3, wild-type AtPEX5C (Arabidopsis thaliana, UniProt Q9FMA3).
T3 construct: made in house; host or cells: E. coli BL21-Gold (DE3)
T3 sequence (Q9FMA3 340-728): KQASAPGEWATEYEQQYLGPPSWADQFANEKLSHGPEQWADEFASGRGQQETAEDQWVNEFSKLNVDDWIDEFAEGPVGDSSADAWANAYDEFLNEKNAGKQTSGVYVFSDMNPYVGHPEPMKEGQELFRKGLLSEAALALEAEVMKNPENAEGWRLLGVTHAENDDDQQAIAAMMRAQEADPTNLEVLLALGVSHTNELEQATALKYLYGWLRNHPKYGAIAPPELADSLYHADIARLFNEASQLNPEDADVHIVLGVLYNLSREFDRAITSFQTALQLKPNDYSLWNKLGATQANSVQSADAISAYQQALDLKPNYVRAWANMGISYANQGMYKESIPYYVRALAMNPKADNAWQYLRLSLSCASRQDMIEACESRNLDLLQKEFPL
The assay can be described thus: Pull down of binding peptides (Co-NTA, LC-MS), wild-type AtPEX5C. The following applies: […] protein, 500 nM each peptide, pH 8.0, 4 °C, 1 h, semi-quantitative.
Text: as §1, §2

Assay [4] concerns the target T4, AtPEX5C D505H-D507T-N601A (Arabidopsis thaliana, UniProt Q9FMA3 340-728, D505H | D507T | N601A).
T4 construct: Made by site-directed mutagenesis of His6-AtPEX5 (340-728) in pET-28b; source: E. coli BL21-Gold (DE3), purified (Co-NTA)
T4 sequence (looked up): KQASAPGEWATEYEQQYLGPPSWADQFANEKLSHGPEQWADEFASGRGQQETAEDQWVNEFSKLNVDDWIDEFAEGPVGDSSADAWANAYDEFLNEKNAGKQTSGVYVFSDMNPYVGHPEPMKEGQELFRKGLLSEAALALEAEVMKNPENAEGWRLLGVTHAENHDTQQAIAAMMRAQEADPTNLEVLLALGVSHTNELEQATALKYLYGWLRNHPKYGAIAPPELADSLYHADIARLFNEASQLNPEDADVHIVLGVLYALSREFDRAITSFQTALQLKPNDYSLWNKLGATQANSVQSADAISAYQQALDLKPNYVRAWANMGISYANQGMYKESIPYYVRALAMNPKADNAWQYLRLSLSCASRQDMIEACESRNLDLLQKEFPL
In words: fluorescence polarisation; fluorescence anisotropy; AtPEX5C or variant serially diluted (from a 40 µM solution) against 100 nM lissamine-labelled peptide tracer; 20 mM HEPES, 150 mM NaCl, pH 7.5; gelatine-blocked 384-well plates; 25 °C, 20 min; fitted to a 1:1 binding model. The following applies: both partners purified.

Assay [5] has as its target T5, AtPEX5C D505H (Arabidopsis thaliana, UniProt Q9FMA3 340-728, D505H).
T5 construct: Made by site-directed mutagenesis of His6-AtPEX5 (340-728) in pET-28b; also called D505H variant of AtPEX5C; source: E. coli BL21-Gold (DE3), purified (Co-NTA)
T5 sequence (looked up): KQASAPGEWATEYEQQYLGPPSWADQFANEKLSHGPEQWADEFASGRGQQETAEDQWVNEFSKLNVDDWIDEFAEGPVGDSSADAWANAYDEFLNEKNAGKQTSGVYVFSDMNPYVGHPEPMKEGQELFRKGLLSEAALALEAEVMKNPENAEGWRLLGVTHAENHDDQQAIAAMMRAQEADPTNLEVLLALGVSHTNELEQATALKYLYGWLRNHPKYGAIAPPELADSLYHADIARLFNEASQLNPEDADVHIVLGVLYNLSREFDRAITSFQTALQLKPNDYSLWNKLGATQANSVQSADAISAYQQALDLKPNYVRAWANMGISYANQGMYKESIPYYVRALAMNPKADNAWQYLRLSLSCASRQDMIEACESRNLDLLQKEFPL
Described as above. The settings on record: both partners purified.

Assay [6] has as its target T6, AtPEX5C N601A (Arabidopsis thaliana, UniProt Q9FMA3 340-728, N601A).
T6 construct: Made by site-directed mutagenesis of His6-AtPEX5 (340-728) in pET-28b; also called N601A variant; source: E. coli BL21-Gold (DE3), purified (Co-NTA)
T6 sequence (looked up): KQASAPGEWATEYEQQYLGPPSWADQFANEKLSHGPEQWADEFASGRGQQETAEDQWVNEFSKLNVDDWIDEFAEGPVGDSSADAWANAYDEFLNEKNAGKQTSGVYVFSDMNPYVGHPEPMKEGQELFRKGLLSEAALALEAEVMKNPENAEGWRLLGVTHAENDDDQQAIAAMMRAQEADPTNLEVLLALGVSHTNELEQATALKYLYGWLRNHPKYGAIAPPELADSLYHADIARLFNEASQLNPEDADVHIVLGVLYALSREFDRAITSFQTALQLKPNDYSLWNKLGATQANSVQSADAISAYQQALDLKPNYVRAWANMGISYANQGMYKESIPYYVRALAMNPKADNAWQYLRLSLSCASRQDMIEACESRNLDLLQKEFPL
Described as above. The settings on record: both partners purified.

In assay [7] the target is T7, His6-tagged A. thaliana PEX5 PTS1-binding domain (residues 340-728), wild type (Arabidopsis thaliana, UniProt Q9FMA3 340-728).
T7 construct: Written 'His6-AtPEX5 (340-728)', in pET-28b; also called AtPEX5C; wild-type AtPEX5C; source: E. coli BL21-Gold (DE3), purified (Co-NTA)
T7 sequence (looked up): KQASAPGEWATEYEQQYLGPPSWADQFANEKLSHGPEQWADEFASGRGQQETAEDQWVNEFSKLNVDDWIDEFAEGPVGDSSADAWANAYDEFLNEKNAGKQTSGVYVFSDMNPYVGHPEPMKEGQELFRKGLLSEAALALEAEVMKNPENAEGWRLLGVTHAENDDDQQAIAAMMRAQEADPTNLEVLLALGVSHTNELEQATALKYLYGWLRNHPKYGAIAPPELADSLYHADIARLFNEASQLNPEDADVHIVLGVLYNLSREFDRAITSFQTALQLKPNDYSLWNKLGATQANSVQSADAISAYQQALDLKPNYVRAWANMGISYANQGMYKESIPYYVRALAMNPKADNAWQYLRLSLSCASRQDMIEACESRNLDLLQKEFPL
The description is as above. The following applies: both partners purified.

For the next assay, the target named is T8, AtPEX5C D505H-N601A (Arabidopsis thaliana, UniProt Q9FMA3 340-728, D505H | N601A).
T8 construct: Made by site-directed mutagenesis of His6-AtPEX5 (340-728) in pET-28b; source: E. coli BL21-Gold (DE3), purified (Co-NTA)
T8 sequence (looked up): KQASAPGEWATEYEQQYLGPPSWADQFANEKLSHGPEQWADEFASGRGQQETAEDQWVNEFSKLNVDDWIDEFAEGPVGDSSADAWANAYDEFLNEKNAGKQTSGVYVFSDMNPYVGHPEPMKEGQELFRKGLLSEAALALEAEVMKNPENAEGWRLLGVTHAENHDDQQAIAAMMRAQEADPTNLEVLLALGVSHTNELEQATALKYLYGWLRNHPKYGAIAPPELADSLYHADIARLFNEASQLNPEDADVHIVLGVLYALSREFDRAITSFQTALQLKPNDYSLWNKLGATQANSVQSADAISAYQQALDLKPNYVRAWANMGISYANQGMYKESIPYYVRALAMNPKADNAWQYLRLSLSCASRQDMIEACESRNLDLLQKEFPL
The assay is described as above. The settings on record: both partners purified.

Where no end group is shown, it is not given here.

In the assay with lissamine-YQSYY, “His6-tagged A. thaliana PEX5 PTS1-binding domain (residues 340-728), wild type (from UniProt Q9FMA3 340-728) (domain or fragment)” had a Kd of 2700 nM.

Molecule RFP-PTS1 returned a peroxisomal import: localisation score (1-5) of RFP-PTS1 in P. patens cells expressing PEX5* without GFP-PTS1* (score (scale 1-5)) in assay [1] of 4.32.

On to “dansyl-YQSFY [member of dansyl-YQSXX pentapeptide library]”, for which the “pulled down from library” value is “bound” at AtPEX5C N601A [2], “bound” on AtPEX5C D505H [3] and “not pulled down” on wild-type AtPEX5C.

With “dansyl-YQSYY [member of dansyl-YQSXX pentapeptide library]”, the results for the “pulled down from library” value on AtPEX5C N601A [2], on AtPEX5C D505H [3] and at wild-type AtPEX5C were “bound”, “bound” and “not pulled down”, respectively.

B1: lissamine-YQSKL (peptide)
peptide: {lissamine rhodamine B sulfonyl}-YQSKL
notes: model PTS1 pentapeptide; also called lissamine-labelled YQSKL; model PTS1 peptide; source: synthetic peptide (Fmoc solid-phase synthesis, reverse phase HPLC)
In the case of B1, the Kd in assay [4] is 97 nM; with AtPEX5C D505H [5] it was 30 nM; in the assay with AtPEX5C N601A [6] it was 22 nM; in [7], 1.1 nM; in the assay with AtPEX5C D505H-N601A it was 108 nM.

B2: lissamine-YQSYY (peptide)
peptide: {lissamine rhodamine B sulfonyl}-YQSYY
notes: pentapeptide found in the YQSXX library screen; also called lissamine-labelled YQSYY; source: synthetic peptide (Fmoc solid-phase synthesis, reverse phase HPLC)
With B2, the Kd in [4] was 110 nM; in the assay with AtPEX5C D505H [5], 960 nM; in the assay with AtPEX5C N601A [6] it was 2300 nM; in the assay with AtPEX5C D505H-N601A, 603 nM.
